3 molecules from patent publication US8106168B2, “Metalloproteinase binding proteins” (Dyax Corp., priority 2005, dated 2012) can be followed below.

Assay [1] deals with T1, MMP-14 (Homo sapiens, UniProt P50281). Put plainly: Selection and phage ELISA screening of anti-MMP-14 Fabs. The following applies: Fab from FAB310 phage display library. The assay is classed as binding. In short, it runs like this: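 Phage ELISA screened 95 clones from each of rounds 2 and 3 against biotinylated MMP-14 (1 μg/ml) captured on streptavidin, in TRIS/CaCl2/NaCl pH 7.5. The clones came from Fab library selections on biotinylated MMP-14, either free or TIMP-2-complexed (500 nM round 1, 100 nM later rounds). Elution used 2.5 μM TIMP-2 followed by TEA.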
(ELISA stands for enzyme-linked immunosorbent assay.)

Assay [2] concerns the target T2, MMP-16 (Homo sapiens, UniProt P51512). The assay can be described thus: Cross-reactivity of Fabs with MMP-16 (Example 9). The assay is classed as biochemical. Details: key: X: Do not inhibit MMP-16 or MMP-24 at [I] = 100 nM level; Y: partially inhibit at [I] = 100 nM level. As to conditions: Fab, 100 nM final inhibitor concentration, 5 nM MMP-16. As to the method:
(§1) For the studies summarized in Table 15, 1 μM of anti-MMP-14 Fab/IgG (100 nM final inhibitor concentration) were incubated with 5 nM of MMP-16 or 5 nM of MMP-24 for 30 minutes at 30° C., 10 μM of substrate was added, and the MMP-16 activity was measured.

Assay [3] addresses T1, MMP-14. The assay can be described thus: IC50 for MMP-14 inhibition by Fabs and IgGs. The assay is classed as biochemical. As to conditions: Fab. In short, it runs like this: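 Cleavage of the fluorogenic substrate Mca-Pro-Leu-Ala-Cys(Mob)-Trp-Ala-Arg-Dap(Dnp)-NH2 was measured without and with increasing Fab or IgG concentrations. IC50 is the binding-protein concentration that inhibits 50% of MMP-14 activity.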

The next assay concerns the target MMP-24 (Homo sapiens, UniProt Q9Y5R2). The assay can be described thus: Cross-reactivity of Fabs with MMP-24 (Example 9). In kind it is biochemical. On the set-up: key to MMP-24 (cross-reactivity, class symbol): X: Do not inhibit MMP-16 or MMP-24 at [I] = 100 nM level; Y: partially inhibit at [I] = 100 nM level. As to conditions: Fab, 100 nM final inhibitor concentration; 5 nM MMP-24. Here is the method:
as §1

Assay [4] deals with T2, MMP-16. Put plainly: Cross-reactivity of anti-MMP-14 IgGs, enzymatic activity: MMP-16. In kind it is biochemical. The following applies: 1 μM anti-MMP-14 IgG. As to the method:
The cross-reactivity of exemplary anti-MMP-14 IgGs and Fabs with other human MMPs and TACE (TNF-alpha converting enzyme) was examined. MMP and TACE enzymatic activity was monitored in the absence and presence of 1 μM anti-MMP-14 IgG antibody. Inhibition (Y) of activity ranged from approximately 50-80% of the reaction rate observed in the absence of antibody. “X” indicates no inhibition was observed. Cross-reactivity was not determined for MMP-17 because protein activity could not be detected.
For the studies summarized in Table 12, six anti-MMP-14 IgGs were selected for cross-reactivity testings: M0043-G02, M0040-A06, M0037-D01, M037-C09, M0038-F01, M0033-H07.

The target of assay [5] is T2, MMP-16. The assay can be described thus: Cross-reactivity of Fabs and IgGs with MMP-16 (Example 8). The assay is classed as biochemical. Details: key to MMP-16 (cross-reactivity, class symbol): X: Does not inhibit MMP-16 at [I] = 100 nM level. As to conditions: 5 nM MMP16, 30 minutes at 30° C., 10 μM substrate. Here is the method:
For the studies summarized in Tables 13 and 14, 100 nM anti-MMP-14 Fab/IgG were incubated with 5 nM MMP16 for 30 minutes at 30° C., 10 μM of substrate was added, and the MMP-16 activity was measured.

MMP-24, sequence (Q9Y5R2 156-645): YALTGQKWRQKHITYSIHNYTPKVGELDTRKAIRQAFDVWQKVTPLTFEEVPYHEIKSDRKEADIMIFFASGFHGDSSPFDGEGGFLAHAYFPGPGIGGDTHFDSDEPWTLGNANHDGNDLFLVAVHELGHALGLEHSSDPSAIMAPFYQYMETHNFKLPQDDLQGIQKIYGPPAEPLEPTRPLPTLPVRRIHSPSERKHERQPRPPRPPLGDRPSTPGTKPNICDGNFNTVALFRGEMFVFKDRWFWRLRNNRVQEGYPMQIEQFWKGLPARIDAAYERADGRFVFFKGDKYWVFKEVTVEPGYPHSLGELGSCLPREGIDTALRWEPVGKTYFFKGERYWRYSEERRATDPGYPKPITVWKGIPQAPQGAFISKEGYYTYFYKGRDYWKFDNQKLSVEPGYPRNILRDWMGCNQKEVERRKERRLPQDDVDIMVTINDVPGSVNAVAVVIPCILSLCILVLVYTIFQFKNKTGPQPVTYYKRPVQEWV
T2 sequence (P51512 120-607): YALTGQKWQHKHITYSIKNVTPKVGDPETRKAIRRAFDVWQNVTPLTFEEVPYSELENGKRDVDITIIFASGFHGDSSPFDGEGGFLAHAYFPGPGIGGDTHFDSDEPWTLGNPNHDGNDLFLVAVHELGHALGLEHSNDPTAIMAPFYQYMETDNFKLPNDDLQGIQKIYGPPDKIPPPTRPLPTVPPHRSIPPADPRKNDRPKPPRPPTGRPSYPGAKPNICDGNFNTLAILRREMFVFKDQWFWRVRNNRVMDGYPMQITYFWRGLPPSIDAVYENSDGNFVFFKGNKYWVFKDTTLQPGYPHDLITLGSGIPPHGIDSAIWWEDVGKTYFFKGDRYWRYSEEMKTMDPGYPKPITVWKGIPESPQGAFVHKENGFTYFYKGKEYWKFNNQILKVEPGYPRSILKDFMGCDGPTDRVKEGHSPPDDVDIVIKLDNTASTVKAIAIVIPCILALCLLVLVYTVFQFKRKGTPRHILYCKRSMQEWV

B1: M0043-G02: human antibody (Fab, IgG) that binds and inhibits MMP-14; HC SEQ ID NO: 166, LC SEQ ID NO: 167 (antibody, V domains shown)
VH: EVQLLESGGGLVQPGGSLRLSCAASGFTFSWYPMFWVRQAPGKGLEWVSGIYSSGGPTDYADSVKGRFTISRDNSKNTLYLQMNSLRAEDTAVYYCAKDTLGRYYDFWSGYSYGMDVWGQGTTVTVSS
VL: QDIQMTQSPGTLSLSPGERATLSCRASQSVSSSYLAWYQQKPGQAPRLLIYGASSRATGIPDRFSGSGSGTDFTLTISRLEPEDFAVYYCQSGVTFGGGTKVEIK
modifications: Synthetically generated peptide
With B1, the “bind to human MMP-14” value with MMP-14 [1] is “bind to human MMP-14”. Further, the “MMP-16 (cross-reactivity, class symbol)” value in the assay with MMP-16 [2] is given as “X”. Further, the “bind to and inhibit human MMP-14” value with MMP-14 [3] is “bind to and inhibit human MMP-14”. The MMP-24 inhibition result in the assay with MMP-24 is reported as “Y 74% inhibition”. In the assay with MMP-16 [4], the “Cross reactivity: inhibition of MMP-16 activity” value (shortened to “Cross reactivity: inhibition”) is listed as “Y (Inhibition (Y) of activity ranged from approximately 50-80% of the reaction rate observed in the absence of antibody)”. Moreover, the values for the MMP-16 inhibition entry with MMP-16 [5] (Fab 100 nM) and in the assay with MMP-16 [5] (IgG 100 nM) were “Y 70% inhibition” and “Y 94% inhibition”, respectively.

B2: M0040-A06: human antibody (Fab, IgG) that binds and inhibits MMP-14; HC SEQ ID NO: 162, LC SEQ ID NO: 163 (antibody, V domains shown)
VH: EVQLLESGGGLVQPGGSLRLSCAASGFTFSYYGMYWVRQAPGKGLEWVSSISSSGGYTDYADSVKGRFTISRDNSKNTLYLQMNSLRAEDTAVYYCARRIKYYDIEGEGAFDIWGQGTMVTVSS
VL: QDIVMTQTPPSLPVNPGEPASISCRSSQSLLHRNGYNYLDWYLQKPGQSPQLLIHLGSYRASGVPDRFSGSGSGTDFTLKISRVEAEDVGVYYCMQPLQTPFTFGPGTKVDIK
modifications: Synthetically generated peptide
Regarding B2, in the assay with MMP-14 [1], the “bind to human MMP-14” value was “bind to human MMP-14”. Besides, the “MMP-16 (cross-reactivity, class symbol)” value with MMP-16 [2], in the assay with MMP-16 [5] (Fab 100 nM) and in the assay with MMP-16 [5] (IgG 100 nM) was “X” throughout. Further, the “bind to and inhibit human MMP-14” value with MMP-14 [3] was “bind to and inhibit human MMP-14”. Moreover, the MMP-24 inhibition entry with MMP-24 is listed as “Y 65% inhibition”. For the same molecule, in the assay with MMP-16 [4], the “Cross reactivity: inhibition” value is reported as “Y (Inhibition (Y) of activity ranged from approximately 50-80% of the reaction rate observed in the absence of antibody)”.

B3: M0038-F01: human antibody (Fab, IgG) that binds and inhibits MMP-14; HC SEQ ID NO: 156, LC SEQ ID NO: 157 (antibody, V domains shown)
VH: EVQLLESGGGLVQPGGSLRLSCAASGFTFSLYSMNWVRQAPGKGLEWVSSIYSSGGSTLYADSVKGRFTISRDNSKNTLYLQMNSLRAEDTAVYYCARGRAFDIWGQGTMVTVSS
VL: QDIQMTQSPSSLSAFVGDKVTITCRASQSVGTYLNWYQQKAGKAPELLIYATSNLRSGVPSRFSGSGSGTDFTLTINTLQPEDFATYYCQQSYSIPRFTFGPGTKVDIK
modifications: Synthetically generated peptide
Consider B3, for which the “bind to human MMP-14” value with MMP-14 [1] is “bind to human MMP-14”. Further, the “MMP-16 (cross-reactivity, class symbol)” value with MMP-16 [2], with MMP-16 [5] (Fab 100 nM) and with MMP-16 [5] (IgG 100 nM) was “X” each time. Further, the “bind to and inhibit human MMP-14” value in the assay with MMP-14 [3] is “bind to and inhibit human MMP-14”. Further, the “MMP-24 (cross-reactivity, class symbol)” value with MMP-24 is given as “X”. Besides, in the assay with MMP-16 [4], the “Cross reactivity: inhibition” value is reported as “Y (Inhibition (Y) of activity ranged from approximately 50-80% of the reaction rate observed in the absence of antibody)”.
